target: acetylcholine receptor (Homo sapiens, UniProt P02708); assay: SPR binding affinity (RU) of optimized 5mer/6mer/7mer peptides, Examples 6-7; conditions: 6mer-1 Top sequence; SPR; peptides tested at 10 μM
In short: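 Response units from SPR give the binding values listed. Each synthesized peptide was run at 10 μM over the receptor.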

acetylcholine receptor, sequence (P02708 21-457): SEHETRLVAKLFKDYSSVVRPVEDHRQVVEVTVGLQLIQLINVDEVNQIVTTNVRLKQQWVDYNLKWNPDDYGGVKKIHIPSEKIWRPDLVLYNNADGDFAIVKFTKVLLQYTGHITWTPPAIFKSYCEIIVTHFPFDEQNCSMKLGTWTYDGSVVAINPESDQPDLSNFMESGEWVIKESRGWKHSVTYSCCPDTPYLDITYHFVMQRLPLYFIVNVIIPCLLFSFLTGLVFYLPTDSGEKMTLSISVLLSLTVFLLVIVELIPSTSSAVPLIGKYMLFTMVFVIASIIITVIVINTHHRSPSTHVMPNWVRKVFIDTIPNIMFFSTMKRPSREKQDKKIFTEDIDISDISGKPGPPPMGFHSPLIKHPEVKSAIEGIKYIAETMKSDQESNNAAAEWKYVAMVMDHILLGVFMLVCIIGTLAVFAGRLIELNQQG

Row | Substance | Binding affinity [Ru]
1 | 6mer-1-306 (KKLFYR) | 135
2 | 6mer-1-269 (RKRRQR) | 142
3 | 6mer-1-234 (RRGISR) | 142
4 | 6mer-1-368 (RRRFSK) | 145
5 | 6mer-1-312 (KKSRQK) | 151
6 | 6mer-1-341 (RKQQQR) | 128

same assay, conditions: 6mer-2 Top sequence; SPR; peptides tested at 10 μM

Row | Substance | Binding affinity [Ru]
7 | 6mer-2-170 (RQYQKK) | 128
8 | 6mer-2-152 (RQFYKR) | 139
9 | 6mer-2-84 (KQRYKK) | 139
10 | 6mer-2-183 (RLQLRR) | 154
11 | 6mer-2-48 (RRFRKK) | 153
12 | 6mer-2-105 (RGFTRR) | 151
13 | 6mer-2-195 (KSRQKR) | 154

same assay, conditions: SPR, Resonance Units; 5mer Bottom sequence (bottom combinations); peptides tested at 10 μM

Row | Substance | Binding affinity [Ru]
14 | 5mer-770 (KKPFR) | 11
15 | 5mer-796 (KNWVR) | 17
16 | 5mer-746 (RMTVK) | 26
17 | 5mer-639 (KETWK) | 13
18 | 5mer-977 (KNMIR) | 16
19 | 5mer-1106 (RYTER) | 18
20 | 5mer-625 (KMCDR) | 33
21 | 5mer-688 (RPHFK) | 31
22 | 5mer-701 (RNHNK) | 22
23 | 5mer-628 (RYMDR) | 19
24 | 5mer-741 (KPTPR) | 14
25 | 5mer-662 (KIEEK) | 28
26 | 5mer-906 (RKHAK) | 31
27 | 5mer-1104 (RETHK) | 12
28 | 5mer-617 (RYCAK) | 28
29 | 5mer-737 (RINVR) | 13
30 | 5mer-613 (RAEFR) | 20
31 | 5mer-1039 (KKDVK) | 32
32 | 5mer-947 (KDWIR) | 27
33 | 5mer-1083 (KFSVR) | 31
34 | 5mer-708 (KPKAR) | 20
35 | 5mer-924 (RNEKK) | 27
36 | 5mer-754 (RKNER) | 29
37 | 5mer-616 (KFCPR) | 15
38 | 5mer-645 (RHKDK) | 20

same assay, conditions: SPR, Resonance Units; peptides tested at 10 μM; 6mer-1 Bottom sequence

Row | Substance | Binding affinity [Ru]
39 | 6mer-1-1097 (RKNCNK) | 39
40 | 6mer-1-1068 (KRYHIR) | 31
41 | 6mer-1-1150 (KRKWWR) | 34
42 | 6mer-1-1147 (RKAPHR) | 35
43 | 6mer-1-1086 (RKEANK) | 22
44 | 6mer-1-999 (RKATNR) | 24

same assay, conditions: SPR, Resonance Units; peptides tested at 10 μM; 6mer-1 Bottom sequence (Table 11)

Row | Substance | Binding affinity [Ru]
45 | 6mer-1-750 (KRENIK) | 33
46 | 6mer-1-667 (KRDSPK) | 32
47 | 6mer-1-766 (RKCTIR) | 15
48 | 6mer-1-760 (KRMMVR) | 21
49 | 6mer-1-629 (RKMDAK) | 11

same assay, conditions: SPR, Resonance Units; peptides tested at 10 μM; 6mer-2 Bottom sequence

Row | Substance | Binding affinity [Ru]
50 | 6mer-2-671 (RDWIRR) | 27
51 | 6mer-2-756 (KPTNRK) | 26
52 | 6mer-2-954 (KCTIRK) | 32
53 | 6mer-2-728 (RMTMKK) | 23
54 | 6mer-2-868 (RTPNRR) | 30
55 | 6mer-2-678 (KEWWRR) | 32
56 | 6mer-2-602 (RNTPKR) | 24
57 | 6mer-2-661 (RMKAKK) | 29
58 | 6mer-2-705 (RENFKK) | 11
59 | 6mer-2-793 (RMHKKR) | 29
60 | 6mer-2-896 (RTCARR) | 30
61 | 6mer-2-909 (RCNPRR) | 42
62 | 6mer-2-969 (KATHKR) | 33
63 | 6mer-2-723 (KEDMKR) | 23
64 | 6mer-2-806 (KHCVRK) | 30
65 | 6mer-2-828 (RMKKKR) | 32

same assay, conditions: SPR, Resonance Units; peptides tested at 10 μM; 6mer-2 Top sequence

Row | Substance | Binding affinity [Ru]
66 | 6mer-2-410 (KRFRKK) | 153
67 | 6mer-2-420 (RRQYRK) | 128
68 | 6mer-2-558 (KSVCKK) | 154
69 | 6mer-2-489 (RVISKK) | 142
70 | 6mer-2-413 (RLILKR) | 136
71 | 6mer-2-456 (KSVTKR) | 147

same assay, conditions: SPR, Resonance Units; peptides tested at 10 μM; 6mer-2 Top sequence (Table 12)

Row | Substance | Binding affinity [Ru]
72 | 6mer-2-251 (KSQTKR) | 142
73 | 6mer-2-243 (KRVLKR) | 148
74 | 6mer-2-248 (RSYTRR) | 154
75 | 6mer-2-296 (KWYRRK) | 135
76 | 6mer-2-400 (RQIRRR) | 154
77 | 6mer-2-356 (RLLQRR) | 145
78 | 6mer-2-389 (KSLYKK) | 153
79 | 6mer-2-295 (KVRYKK) | 145
80 | 6mer-2-216 (KGILKK) | 126

same assay, conditions: SPR, peptides at 10 μM; 6mer-2 Bottom sequence

Row | Substance | Binding affinity [Ru]
81 | 6mer-2-1136 (KMKKKR) | 36
82 | 6mer-2-1055 (KPDFKR) | 30
83 | 6mer-2-1081 (KYKMRR) | 32
84 | 6mer-2-1066 (KPEHKR) | 29
85 | 6mer-2-1172 (KNCERR) | 36
86 | 6mer-2-1105 (RNNAKK) | 28
87 | 6mer-2-1151 (RYPVRK) | 43
88 | 6mer-2-1060 (KTNERK) | 35
89 | 6mer-2-1009 (KINPRK) | 34
90 | 6mer-2-1175 (RYSKRR) | 34

same assay, conditions: SPR, peptides tested at 10 μM; 5mer Top sequence

Row | Substance | Binding affinity [Ru]
91 | 5mer-38 (RGYCK) | 53
92 | 5mer-308 (RLRCR) | 84
93 | 5mer-411 (KGRLR) | 66
94 | 5mer-155 (KRYLR) | 57
95 | 5mer-188 (KWFSK) | 82
96 | 5mer-183 (KRVYR) | 64
97 | 5mer-353 (KSQLK) | 59
98 | 5mer-35 (RWQYK) | 80
99 | 5mer-310 (KSRQR) | 78
100 | 5mer-424 (RVYLK) | 87
101 | 5mer-352 (RLVRK) | 76
102 | 5mer-174 (KGRQR) | 59
103 | 5mer-505 (RQIYR) | 71
104 | 5mer-80 (KSRTR) | 83
105 | 5mer-484 (RSFQK) | 51
106 | 5mer-431 (KVQLK) | 81
107 | 5mer-478 (RVQTK) | 75
108 | 5mer-436 (RVFYK) | 60
109 | 5mer-82 (RQRYK) | 84

same assay, conditions: SPR, peptides tested at 10 μM; 5mer Top sequence (top combinations)

Row | Substance | Binding affinity [Ru]
110 | 5mer-241 (KVRCR) | 51
111 | 5mer-583 (KVVYR) | 75
112 | 5mer-528 (RVLLR) | 50
113 | 5mer-213 (RQYTK) | 83
114 | 5mer-257 (RQFTR) | 85
115 | 5mer-549 (KWITK) | 78
116 | 5mer-281 (RGFLK) | 58

same assay, conditions: SPR, peptides tested at 10 μM; 6mer-1 Bottom sequence (Table 11)

Row | Substance | Binding affinity [Ru]
117 | 6mer-1-930 (KKESNK) | 43
118 | 6mer-1-977 (RRPCFR) | 43
119 | 6mer-1-861 (KRINIR) | 21
120 | 6mer-1-969 (RKDHWR) | 33
121 | 6mer-1-910 (KRPTIR) | 42
122 | 6mer-1-987 (RRTEFK) | 34
123 | 6mer-1-870 (KRMSHR) | 25

same assay, conditions: SPR, peptides tested at 10 μM; 6mer-1 Top sequence

Row | Substance | Binding affinity [Ru]
124 | 6mer-1-457 (RKLLCR) | 121
125 | 6mer-1-443 (RKVLLK) | 145
126 | 6mer-1-559 (RRRLTK) | 139
127 | 6mer-1-575 (KRWVRR) | 148
128 | 6mer-1-1458 (RKGQLK) | 139
129 | 6mer-1-467 (KRGYQK) | 121
130 | 6mer-1-484 (KKLYLR) | 154
131 | 6mer-1-499 (RKLFYR) | 149
132 | 6mer-1-437 (RKWFLK) | 131
133 | 6mer-1-527 (KKGIYR) | 142

same assay, conditions: SPR, peptides tested at 10 μM; 6mer-1 Top sequence (top combinations)

Row | Substance | Binding affinity [Ru]
134 | 6mer-1-68 (RKLQLK) | 153
135 | 6mer-1-163 (KRLQTK) | 147
136 | 6mer-1-153 (KKWQQR) | 146
137 | 6mer-1-8 (RKRRRK) | 125
138 | 6mer-1-57 (RKQYYK) | 139
139 | 6mer-1-99 (RKVVYR) | 136

same assay, conditions: SPR; XRRGVRR-7mer and RRGVRRX-7mer

Row | Substance | Binding affinity, values relative to the RRGVRR sequence
140 | 3643 (VRRGVRR) [compound 3643] | 140

same assay, conditions: SPR; peptides tested at 10 μM; 5mer Bottom sequence

Row | Substance | Binding affinity [Ru]
141 | 5mer-882 (REEGR) | 18
142 | 5mer-1146 (KPHGR) | 23
143 | 5mer-1154 (KCWVR) | 12
144 | 5mer-1140 (RNEFK) | 28
145 | 5mer-871 (RHSHR) | 21
146 | 5mer-877 (RFSMR) | 17
147 | 5mer-835 (RFMMR) | 14
148 | 5mer-1183 (RHAPK) | 13
149 | 5mer-1160 (KETWR) | 14
150 | 5mer-828 (RFCWR) | 27
151 | 5mer-1115 (KEPEK) | 27
152 | 5mer-820 (RIMHK) | 28
153 | 5mer-1128 (REWVR) | 26

— patent publication US20250011363A1, “OPTIMIZED SHORTENED PEPTIDE THAT BINDS TO ACETYLCHOLINE RECEPTOR, AND USE THEREOF” (SKINMED CO., LTD., priority 2021, published 2025)
